# Experimental data as given in patent publication US20240034790A1 (INNOBATION BIO, published 2024).
# Where a chain is given by its changes, count along the chain named.
# B1: 5A4 antibody (antibody, V domains shown)
# VH: QVQLQQPGPELVRPGASVKMSCKASGYTFTNYWIHWVKQRPGQGLEWIGMIDPSNSATRLNQKFKDKATLNVDKSSNTAYMQLSSLTSEDSAVYYCARGGFAFDSWGQGTTLTVSS
# VL: DVLMTQTPLSLPVSLGDQASISCRSSQSLVHSNGNTYLHWYLQKPGQSPKLLIYKVSNRFSGVPDRFSGSGSGTDFTLKISRVEAEDLGVYFCSQSTHVPWTFGGGTKLEIK
# notes: Hybridoma monoclonal antibody detected with anti-mouse IgG
# B2: 4E12 antibody (antibody, V domains shown)
# VH: QIQFAQSGPELKKSGETVKISCRASGYTFTNYGMNWVKQAPGKGLKWMGWINTYTGEPTYADDFKGRFAFSLETSASTAYLQINNLKNEDMATYFCARGGGRGAMDYWGQGTTLTVSS
# VL: B1 VL with L29I, H39D, N58K, F92Y, S94F, S96G, T97S, W101F, G105S
# notes: as for B1
# B3: 1E7 antibody (antibody, V domains shown)
# VH: EVQLQQSGPELIKPGASVKMSCKASGYIFTSYVVYWVKQKPGQGLEWIGYINPYNDGTKYNEKFKGKATLTSYKSSSTAYMELSSLTSADSAVYYCARGGFTTDYWGQGTTLTVSS
# VL: B1 VL with W101Y
# notes: as for B1
# B4: 5H4 antibody (antibody, V domains shown)
# VH: QVQLQQPGAELVKPGTSVKMSCKASGYTFTNYWMHWVKQRPGQVLEWIGVIDPSDSYTSYNQKFKGKATLTVDTSSTTAYMQLSSLTSEDSAVYYCTRGGKRAMDYWGQGTSVTVSS
# VL: B1 VL with W101F, G105S
# notes: as for B1
# B5: 3A5 antibody (antibody, V domains shown)
# VH: B4 VH with Q1E, T16A, N31S, V37M, K38N, V44G, T77S, T97A
# VL: B1 VL with W101F, G105S
# notes: as for B1
# B6: 3H3 antibody (antibody, V domains shown)
# VH: B1 VH with Q1E, I34M, A57E, Y95S
# VL: B1 VL with S32N, S68R
# notes: as for B1
# B7: 7C7 antibody (antibody, V domains shown)
# VH: EVQLQQSGPELVKPGASVRMSCKASGYTFTSYVMHWVKQKPGQGLEWIGYINPYNDGTKYNEKFKGKSTLTSDKSSSTAYMELSSLTSEDSAVYCCARGRNRYDSWFAYWGQGTLVTVSA
# VL: DIQMTQTTSSLSASLGDRVTISCRASQDISNYLNWYQQKPDGTVKLLIYYTSRLHSGVPSRFSGSGSGTDYSLTISNLEQEDIATYFCQQGNTLPWTFGGGTKLEIK
# notes: Monoclonal antibody from a hybridoma (mouse myeloma fusion), detected with anti-mouse IgG; In the ELISA hybridoma culture solution was used
# Biological target: T1, CD47 on breast cancer cell line MCF-7 (UniProt Q08722 19-323, limits assumed)
# T1 construct: whole, on cells; Endogenous CD47 of MCF-7 cells; also called CD47-expressing tumor cells (MCF-7); CD47-expressing cells
# T1 sequence (Q08722 19-323 limits assumed): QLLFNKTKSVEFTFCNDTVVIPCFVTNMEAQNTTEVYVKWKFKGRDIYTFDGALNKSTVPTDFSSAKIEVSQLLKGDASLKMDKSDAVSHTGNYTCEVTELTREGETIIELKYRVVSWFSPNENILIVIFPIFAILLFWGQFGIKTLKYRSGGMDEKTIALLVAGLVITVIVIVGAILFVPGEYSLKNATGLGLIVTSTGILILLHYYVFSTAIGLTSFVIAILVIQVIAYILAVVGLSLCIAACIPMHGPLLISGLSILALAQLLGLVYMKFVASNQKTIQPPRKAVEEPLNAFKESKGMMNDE
# Assay: flow cytometry on MCF-7 cells, 1 ug antibody, PE anti-mouse IgG
# Protocol: First, 1×10⁷ of breast cancer cell line MCF-7 expressing CD47 and 1 μg of 7C7, 5H4, […], 3H3, 3A5, and 1E7 antibody were reacted for 30 minutes, respectively, and then stained on surface with a secondary antibody. After staining, it was measured by flow cytometry.
# As a positive control, CD47 antibody (Biolegend PE anti-human CD47, cat# 323108, 5 μl) was used, and as a secondary antibody, PE-conjugated anti-mouse IgG antibody (PE-conjugated goat anti-mouse IgG; Biolegend Inc., cat# 405307, USA, 5 μl) was used.
Mean,Median,Molecule
16000,14700,B1
6030,5380,B2
16100,14900,B3
15500,14300,B4
15000,13900,B5
18000,16500,B6
6820,6110,B7

# Biological target: T1, CD47 on breast cancer cell line MCF-7
# Assay: flow cytometry on MCF-7 cells, secondary antibody alone (background control)
Mean,Median,Molecule
80,73.9,"PE-conjugated goat anti-mouse IgG (Biolegend Inc., cat# 405307) (antibody)"

# Biological target: T2, CD47 protein (Acrobiosystems, cat#CD7-HA2E9) (UniProt Q08722 19-139)
# T2 construct: Bought recombinant protein, used as immunogen and as ELISA coating (100 ng/well); also called CD47 peptide; CD47 antigen
# T2 sequence (Q08722 19-139 limits assumed): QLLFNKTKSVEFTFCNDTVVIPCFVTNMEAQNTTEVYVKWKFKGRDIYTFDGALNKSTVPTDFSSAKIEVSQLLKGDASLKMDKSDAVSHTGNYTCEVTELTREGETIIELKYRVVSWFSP
# Assay: ELISA, CD47 protein coated 100 ng/well, 3 ul hybridoma culture solution, anti-mIgG-HRP
# Protocol: 3 μl of hybridoma cell culture solution of each clone for producing 7C7, 5H4, 5A4, 4E12, 3H3, 3A5, or 1E7 antibody was treated in each well, and then reacted at room temperature for 2 hours, and then washed 3 times with 1× PBST. Secondary antibody ([…], 1:10,000) was treated and reacted at room temperature for 30 minutes, washed 3 times with 1× PBST, and then treated with TMB for color development and reacted at room temperature for 5 minutes. Finally, the reaction was terminated by treatment with a stop solution of 1N H₂SO₄, and then the absorbance was measured at 450 nm.
row,OD450 measurements [OD450],Molecule
1,1.93,B1
2,2.15,B2
3,2.14,B3
4,1.91,B4
5,2.01,B5
6,1.97,B6
7,1.98,B7
